In paper PMC7668254:

Biological target: T1, DROSHA fragment D3;DGCR8 fragment G1 (human;human, UniProt Q9NRR4;Q8WYQ5 390-1365;728-750, |)
T1 sequence 1: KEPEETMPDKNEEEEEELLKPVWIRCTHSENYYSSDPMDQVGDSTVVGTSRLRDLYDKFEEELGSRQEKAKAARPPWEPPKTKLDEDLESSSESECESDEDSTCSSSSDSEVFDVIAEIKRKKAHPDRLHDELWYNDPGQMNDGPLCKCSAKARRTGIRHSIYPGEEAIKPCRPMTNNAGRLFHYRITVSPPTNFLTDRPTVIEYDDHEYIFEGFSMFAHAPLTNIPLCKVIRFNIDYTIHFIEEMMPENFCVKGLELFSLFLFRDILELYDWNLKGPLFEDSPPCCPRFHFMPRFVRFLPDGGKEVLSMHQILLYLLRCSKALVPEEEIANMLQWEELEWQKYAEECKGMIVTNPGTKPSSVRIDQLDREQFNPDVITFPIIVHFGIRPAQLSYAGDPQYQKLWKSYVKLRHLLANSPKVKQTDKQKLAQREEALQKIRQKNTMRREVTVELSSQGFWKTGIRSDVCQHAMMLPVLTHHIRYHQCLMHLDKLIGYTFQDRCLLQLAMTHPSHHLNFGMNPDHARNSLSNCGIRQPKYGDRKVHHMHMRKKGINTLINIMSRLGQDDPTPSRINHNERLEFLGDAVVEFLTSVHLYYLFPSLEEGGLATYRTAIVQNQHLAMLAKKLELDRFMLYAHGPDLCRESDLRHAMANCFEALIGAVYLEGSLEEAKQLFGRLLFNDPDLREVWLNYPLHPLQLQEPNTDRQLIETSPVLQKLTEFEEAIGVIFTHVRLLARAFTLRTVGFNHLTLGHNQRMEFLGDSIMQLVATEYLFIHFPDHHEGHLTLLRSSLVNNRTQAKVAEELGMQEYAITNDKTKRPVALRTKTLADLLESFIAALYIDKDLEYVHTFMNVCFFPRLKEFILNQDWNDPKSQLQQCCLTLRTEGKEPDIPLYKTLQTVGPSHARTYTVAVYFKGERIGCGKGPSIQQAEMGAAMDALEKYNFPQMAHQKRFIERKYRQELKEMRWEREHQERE
T1 sequence 2: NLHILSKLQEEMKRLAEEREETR
Assay: EMSA; 2 mM EDTA; 1.5 pmol RNA, 5-25 pmol D3-G1 in 10 uL; 50 mM Tris-HCl pH 7.5, 150 mM NaCl, 0.2 mg/ml BSA, 10% glycerol, 2 mM EDTA, 1 mM DTT; on ice 60 min; 4% native PAGE in 1x TBE at 4 C
Settings: protein: recombinant;recombinant; tags: ;; copies: 1;2; hairpin

B1: Short pri-mir-146a_C (structured_RNA)
RNA: GGAGAACUGAAUUCCAUGGGUUGUGUCAGUGUCAGACCUCUGAAAUUCAGUUCUUCAG
  binding result: binds
